Source: the DeepSol protein solubility set

assay: soluble on expression in E. coli; label from the status in PepcDB or PDB records

Soluble on expression in E. coli, not soluble:
MGSDKIHHHHHHMQAEAQHPKAEQYRTARLSRDARFDGLFFVGVFSTGIFCRPICPAVPAKEANVRYFDDALSAAQAGLRPCLRCRPDSAPGSNPWLGKQTSLNRAMSLIDAGVLCGPQAIPMTGLAERLGISERYLRQLFHDSLGTSPKQYALYQQLMFAKQLLHQTKMPITQVAYAAGFNSVRRFNEIFRQQLQLTPSEIRKATGQPSLPVQGLTLKLAYRPPYDWQHLRSFFAQRAVPEMEWLDEQSYGRSFVLGAAKGYFCAVHSEQEACFHVTIHLAEADSLSQLKGIISHIRRILDLDADMLTIGDKLQALGKALPQVSPGLRLPGVWSPFEAACRAILGQQVSVTQAIKLLGQLVADHGETISLNEKTVRLFPTPAALVDASLDGLKMPGIRKEAIRALAAFVMANPESEIDDWLQIKGIGPWTLDYVRLRGLSLPDVLLVGDLVVKQQLLVNLRPEPSSCDGEPAEDEDPKAAKKRAQAQYQALSQAVLRQVAPWGSYLTLQLWNRQ
MGSDKIHHHHHHMQDIDEFLKKHRITEIEAIIPDMAGIARGKIIPRSKFETGESMRLPQAVMIQTVTGDYPEDGSLTGVTDPDMVCLPDASTIRLIPWAIDPTAQVIHDCVHFDGTPVEISPRRVLRRVLELYKAKGWKPVIAPELEFYLVDMNKDPDLPLAPPIGRTGRPETGRQSYSIEAVNEFDPLFEDIYEYCEVQDLEVDTLIHEVGAAQMEINFLHGDPLNLADRVFLFKRTVREAALRHHMYATFMSKPMENEPGSAMHVHQSIVDEETGRNLFTGDDGGPTDMFYAYIAGLQKYTPALMPIFAPYINSYRRLSRFMAAPINVQWGYDNRTVGFRVPHSSPVSRRVENRIPGVDCNPYLAIAGTLAAGYLGMTRRLEPTEPLASDGYSLPYQLPRNLEEGLTLMSACEPLAEILGEKFVKAYLALKETEYEAFFRVISSWERKHLLLHV
MGSDKIHHHHHHMQDYYSTLIGWMIPISRAMEAHQIDLTTALKECNISQDVMTDQESRIAAEKFYNLIEYCNKKLGRHDFSILIAEQFHPGMFHALGYAMMSSNTLQDALDRIAHYKRVVSNTCQLVTYESNNQLVFEMNIFTYEGTNRPVLSLATVETFLATIIRFARELVTLDFSPEKICFAYQKPAHDVTYLEEFFNCDIEFNSDKNAIIFNFEQAQEKLMCGNPLITHSHEKMLDEFMARIDKNDLSHVIKNKIFDLLPLGAPSQIVIAEDLGMSLRNLQRKLQEQGTSYKEILESTRKKLAMDYIVQQHLSLSEIGYLVGFSSVGNFNRAFKRWTNQTPGEYRQSKKT
MGSDKIHHHHHHMQFGKTDTPEDIDFTLPKDHPDTKKILSEAKPGKHFNVYVGCAKWNKTDLKNFYPKGTKDELQYYATQFNSIELNATFYKSPSKDQVQTWKAKAAKGFKFFPKIPNTISHFKRLVGVETIVEEFCDAVVLFEENLGMSFLQMHDNFKPKDMDKLDAFLKKFPASVPLAVELRNEEWYSDKNVQDDLHAMLVKYKKTFVLVDTAARRDIMHMRLTSDKAFIRYVGANHESDYARLDDWIKRIKTWRKEGLNELYFFVHQNVELESPLLSAYFIEKMNKEFDLDLTVPQTIKKKQ
MGSDKIHHHHHHMQHWAIFATDSYSGSLLGRMLAADIQPDEGQICNLPARVGWVSLGLQQALLERELAKDELDYGSTVEALVLECCQDSAQLPALLQKVGLEPLRQRGFRQLSTGETRRVMLARALAMLPQLLILDDPYAGLDAEHQGSLSELLCEVAAHSQLLVITSRQEELPPCISHVALFNSEMLKSGQHVHKLSAPMSIEQWHSHPVMAQLNALSASRSDELLALMERQRHNAEAFDPLVEIKNGKVEYVSCLIFKGVNWRINAGQHWQVRGPNGCGKSTLLGLILGDHPQCYSNDITLFGRPRGSGESIWQIKQRIGIVSSALHLQYRVSCSALDVLLSGFYDSIGLYHKPTKPQVDLAKEWLAILHMNEFASTGFKQLDYGQQRLLLIGRALIKQPLLLILDEPYQGLDFINRTLVMRALEMIAEHHLSQLLYVSHHREDALPAIKNFVDFIKQDNGYSVEVSHRPNELAQRMPIP
MGSDKIHHHHHHMQILIYSYNYHPEPIGIAPLMTELAEGLVKRGHQVRVITGMPNYPQRQIYDRYRGKLYVTEQKNGVKIQRSYLRIKSKPNLIDRLLLELSFVFTSLPQALKGERPDVILLTIPPLLVCLPATLIGWLYNCPVVLNVQDILPEAGVRVGLIKNKLMIQALEALEKFAYRTAHTISVIADGFVDNLINKGVPANKIACIPNWVNLNFIRPLPKVNNSWRATHQLDGKFVVLYSGNIALTQGLETVIEAAARLRHLKEIIFVVAGESQALERLQKHCLACGADNVLLLTLQAREKLPQMLAAADVGLIVQKCNVISFNMPSKIPLLLASGRPIVGSVPALGTAAKAIRESGGGVIVEPESAGALAAAVLDLYHQPELAAQLGCKGRKFAVENYSFEQALDRYEELFADAIAKRATNLDILPEMSSKQSLVDI
MGSDKIHHHHHHMQITKRNVELRVDDSLMRVYVASPKPVGVYPGIVFYSDIYQLGSPIIRLANYLAGFGYVVAAPEIFHRLEPIGLVIEPDDLGRMRGNDNARRTAIAEYDADSRAVIDFLKAETTVNANKIGTVGFCIGGHLAFRAAFENEVKASACCYPTGIPSGKLGKGVADTIHRVKEIKGEMLLVLGTLDPHIPESDRQILIKAIEDAKVPHKVVLYEAEHTFMRDDGYRYDSAATTFAWAEIVEFLGRVFAD
MGSDKIHHHHHHMQLEELINQHYSKLNDNDFHILKYILNHKHTCYHLGIDALAKACSVSRSSILRLAQKLGFSGYSEFRVFLKWEDQPEEGESMSFEKLLDDIEANLKFLRTKDMTDMCQLIDAADRIFVYGSGNAQKICARDLQRMFIPRHRYLILIEDTNEFNLMRDDFKVNDLFIIISLSGETPELIPQARMLSAKGIPFISITNLKNNVLAQLTPHNLYATSKPVTLSDRTEIVAFAPFFLVGEALFRAYVDYKEAEKNDNE
MGSDKIHHHHHHMQLIPLAERMRPVLLQDVYGQQHLIGEGMVFRRFVEEGKIPSMILWGPPGVGKTTLAQLLAKTVGLPFYTLSAISSGVKEVREVIANAQTDGKAVLFIDEIHRFSKSQQDALLGAVEKGTIQLIGATTENPSFEVIPALLSRCQVYVLQPLSEEELVELMRSALKKDAYLKTRSVEIKEHDSLLRLSGGDARKLLNLLELVIDASGKDPIVITDAYVQKIAQKKVASYDKNGEMHYDIISAFIKSVRGSDPNAAVYWLARMIEGGEDVEFIARRLLILASEDVGNANPTALVMATTAFDAVRFIGWPESRIILSQVTTYLASSPKSNASYMAINEAQQLVRSHGDLPVPIHLRNAPTKLMKDLDYGKEYKYAHSYEANFVEQEYMPDKLAGKKIFDPGNNAREQELRTFLQKRWKEKYKY
MGSDKIHHHHHHMQLNPSLIPHSSEQHVDWEKALHGGNDALLTQLAADDDPAAALLELESYINGIYRGSPSPLSKPLPDIRLEVRRALPYVDEIRDRLGWQVRDFDLGLLRLIRGSSTLSPVLGAGVSMDAGAPSWPELVRLMLEETLDKGLEFYESVPAADNPAQPPIEFLPDGTVRTGGTGTWRFEQRVSEVKRYTAEQEQTARNVLAEVKAKGSSTDVETLMHGAQVCYDLCGQHLFRLLTKIIYTRAKEPSEVHRVIAELAQAQEVPVRGPGLFPGWDSIITYNIDALMSEALAEQKIPHAAWAMKGDKLRGNPDELAQKSSWHEPIFHLHGFSPRRLFMITNVRFVFSTSQYLTTYKGPRSRILEAVYDEFLANPVRIALYIGCSFADEAMNGLLREAFAEYPGRYHYALLKWPRDRKGKEPDRSEIAAESAKYLEFGVRPIWFDDFAELPGLIRQLQ
MGSDKIHHHHHHMQMKQVLLEARQDFLSLLKRRGWKEKDLNILRGIFLGELSRVDVPADIFELAIKEAVKGNLKLSSKLLGVSEIDTLEILFWYLPKKYPLPSERLKKRLKAESVKEFIEEANRLRVKLGKKDFMELYLHLEEAEEEEEKRENTDLLERVRNLSIEKLSESEIEELRYFYSLLDLRGKESVRTLNVHPYILSAIIRNPSAPIVIDGSNLLWRGGLSVSYIYEVFERLAVFREFFFPYRIVFDRNAEFVLPVHERKGFERWKNSPNVLFESPADGLIISLANTMDAVVLSGDRFRDHGLPRRVRVLTPEEIEKG
MGSDKIHHHHHHMQNFVLTVSCKSTRGVVAALSGYLAEQGCNIADSSQFDDLDTGKFFMRTSFISEERVGLAALEEGLKPIASKFEMETALHEQSERMKVLLMVSRFGHCLNDLLYRWKIGALPIDIVGVVSNHFDYQKVVVNHDIPFHHIKVTKENKPKAEAQLMDVVEQTGAELIVLARYMQVLSDALCKKMSGKIINIHHSFLPSFKGANPYKQAYERGVKLIGATAHYVTADLDEGPIIEQDIARITHAQSAEDYVSIGRDVESQVLARAVHAHIHHRCFINGNRVVVFPPSPGSYASERMG
MGSDKIHHHHHHMQNIIIEARVNELATRIGNPHVPFLPAEVIADAKACHDAGASIFHFHGRNEDGTPSHDPNFYLETNAGIRAQSDILIHPTLGYVANDTDAKGRFAAIEQMMQSAETAPDFAPMDTGSVNVDWWNPDEGKYDTTELIYKNSTGTLMYFADRIRHYNLTPYLVSWNVSFTRQIEQFLKMGVLDAPAYICFCMTDEIIFAGHPGTEAGLDAHTAFLPPEFETVWTVVNYKGDLFQLTEKIIRTGGHISIGLGDYAYMDGSRHMTNAEVIAKVADQARRLGREPASVAETREILNMKTPRIAA
MGSDKIHHHHHHMQNPFTTTFSKTPEYTYIHTEKTEEILENFIYDNPSESVYKITGVRGSGKTVILAKVEEELRTNESRYINWLVFDVNPARDILGQIAAMLVKAGFGSQDKKTTGINLSATVMGTGGGIGYTAENNNNFFDIGVEVETMIQAAQKKGKKILIGIDEVSKSEEMIKFASEYGRWLRAGYPVYFVCTGLYENIQELSNVKNLTFFRRAATVKTEPLNMIRMTEMYKSKLDIDSNEAREMAKITKGYAYAFQELGVLYFKKKLDELLEDILPKLKAELFAYSYEKIWEEMTEMDRFLAGLLTEKEEYKREEVLKLMGEKSGSYSMYRDRLIKRGILNSRQGYISLALPYFGEYIKEYC
MGSDKIHHHHHHMQNVIENFKQLCKIPHCSYETEQMKEFLSSYAKDKGFKVSVDKAGNIHAIKGKPKICLQSHYDMVCMGDAPNLEVYEENGFLRAKNSSLGADNGIGIAIMMSAMAEFENLECLFTNDEEVGLMGVNLLEHTLESKMLLNLDHESDDEIMIGCAGGVDIEASLSFNTLRKKGKIYELCAQNFKGGHSGINIIRNEKSSIKEMAKFIQENEGEIISFEGGERINSIPKHAKALVHFKDEVKSNNWIKCEFKEENEFEICDQSKKLLSLINSFTHGVRAYDENLDIVQTSINLATLRMQDNQIKFALFARSNILDGLKQVEFETLEFFKAFDFKIRSFNFYPPWEGKPNALSDMVFKALKKVSPNAKVSAIHAGLECGIIEKKQELLCASIGPNIHNPHSTDEHCEIASVEKISKVVFEVLKDNA
MGSDKIHHHHHHMQQLFVQLLEERYFNRLPEALVLKFATESADFVRFWLVHCMRSMVSERELAIALFFSAEWELEELASLKSFWGSYVAMEEAQEVKATFCHFVPWLKTISPHHEDAICVFSALWFFEHRPTSVGKQLQSATLSHSQLPVSLLDDIKLFSLPHLRPITVYGHQGKGSVESGIRNNMHYPTPIPNDNLAMACVERVIAKFAGIKLAFAEPIVVLRYEPGQFYQWHYDAIHAYTAEIQAELERFGQRSRTAILYLNDDFEGGETEFKAPYIQVKPETAAILVFDNTDQTGKPIPSSLHRGCEVTAGKKWVCTQWFRDKPFWLRAGLLA
